Earlier results as cited in US7850723B1, “Method and apparatus for patient temperature control employing titration of therapy using EEG signals” (Innercool Therapies, Inc., priority 2005, dated 2010).

Key:
clots [1] = conditions: tPA 0.3, 1.0 and 3.0 μg/ml; incubated at 24° C. to 40° C.
clots [2] = conditions: clots treated with 2.5 μg/ml tPA; incubated at 37, 25, 10, 0 and −8° C.
plasmin = plasmin (Homo sapiens, UniProt P00747)
plasmin, sequence (P00747 581-810 limits assumed, species assumed): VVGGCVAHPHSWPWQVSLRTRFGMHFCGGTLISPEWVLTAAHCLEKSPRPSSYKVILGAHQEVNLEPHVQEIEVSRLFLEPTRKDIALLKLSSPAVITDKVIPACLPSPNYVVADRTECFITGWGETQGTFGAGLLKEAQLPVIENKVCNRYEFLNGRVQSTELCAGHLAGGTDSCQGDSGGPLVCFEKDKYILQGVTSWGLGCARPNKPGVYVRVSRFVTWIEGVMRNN
plasmin, sequence (P00747 97-580 partner limits assumed, species assumed): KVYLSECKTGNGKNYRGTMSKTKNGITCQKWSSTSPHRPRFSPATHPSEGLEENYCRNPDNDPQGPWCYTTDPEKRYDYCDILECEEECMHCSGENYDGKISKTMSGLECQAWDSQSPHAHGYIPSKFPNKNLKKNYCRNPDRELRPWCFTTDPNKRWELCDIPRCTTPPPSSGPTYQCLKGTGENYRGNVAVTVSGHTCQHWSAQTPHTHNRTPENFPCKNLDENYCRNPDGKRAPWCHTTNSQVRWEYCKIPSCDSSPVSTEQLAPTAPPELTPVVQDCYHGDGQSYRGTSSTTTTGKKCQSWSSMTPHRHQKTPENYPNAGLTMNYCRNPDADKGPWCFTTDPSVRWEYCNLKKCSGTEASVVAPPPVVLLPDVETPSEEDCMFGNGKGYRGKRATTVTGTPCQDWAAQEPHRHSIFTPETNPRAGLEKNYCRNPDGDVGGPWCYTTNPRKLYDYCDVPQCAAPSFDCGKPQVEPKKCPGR

B1: tissue plasminogen activator (protein, UniProt P00750 36-562, looked up)
Tissue-type plasminogen …: SYQVICRDEKTQMIYQQHQSWLRPVLRSNRVEYCWCNSGRAQCHSVPVKSCSEPRCFNGGTCQQALYFSDFVCQCPEGFAGKCCEIDTRATCYEDQGISYRGTWSTAESGAECTNWNSSALAQKPYSGRRPDAIRLGLGNHNYCRNPDRDSKPWCYVFKAGKYSSEFCSTPACSEGNSDCYFGNGSAYRGTHSLTESGASCLPWNSMILIGKVYTAQNPSAQALGLGKHNYCRNPDGDAKPWCHVLKNRRLTWEYCDVPSCSTCGLRQYSQPQFRIKGGLFADIASHPWQAAIFAKHRRSPGERFLCGGILISSCWILSAAHCFQERFPPHHLTVILGRTYRVVPGEEEQKFEVEKYIVHKEFDDDTYDNDIALLQLKSDSSRCAQESSVVRTVCLPPADLQLPDWTECELSGYGKHEALSPFYSERLKEAHVRLYPSSRCTSQHLLNRTVTDNMLCAGDTRSGGPQANLHDACQGDSGGPLVCLNDGRMTLVGIISWGLGCGQKDVPGVYTKVTNYLDWIRDNMRP
For B1, the “amount of clot lysis” value (clots [1]) is listed as “the amount of clot lysis at lower temperatures was less than that at higher temperatures” and the plasminogen activation (clots [2]) is listed as “relatively high at low temperatures”.

B2: α2-antiplasmin (protein, UniProt P08697 40-491, looked up)
Alpha-2-antiplasmin: NQEQVSPLTLLKLGNQEPGGQTALKSPPGVCSRDPTPEQTHRLARAMMAFTADLFSLVAQTSTCPNLILSPLSVALALSHLALGAQNHTLQRLQQVLHAGSGPCLPHLLSRLCQDLGPGAFRLAARMYLQKGFPIKEDFLEQSEQLFGAKPVSLTGKQEDDLANINQWVKEATEGKIQEFLSGLPEDTVLLLLNAIHFQGFWRNKFDPSLTQRDSFHLDEQFTVPVEMMQARTYPLRWFLLEQPEIQVAHFPFKNNMSFVVLVPTHFEWNVSQVLANLSWDTLHPPLVWERPTKVRLPKLYLKHQMDLVATLSQLGLQELFQAPDLRGISEQSLVVSGVQHQSTLELSEVGVEAAAATSIAMSRMSLSSFSVNRPFLFFIFEDTTGLPLFVGSVRNPNPSAPRELKEQQDSPGNKDFLQSLKGFPRGDKLFGPDLKLVPPMEEDYPQFGSPK
In the case of B2, the “time required to inactivate plasmin bound to a fibrin surface” value (plasmin) is given as “about 10 seconds”.
